The values below come from PMC12738837, “Structure of Trypanosoma peroxisomal import complex unveils conformational heterogeneity” (Nature Communications, 2025).

Residue numbers refer to the chain shown, from its start. Names may count otherwise. “And” between values parts separate entries of the source, which are not always exact repeats. Equal values may be shown once. Read-outs that look alike come from different tables or passages of the source.

Assay [1] concerns the target 6-FAM labeled PTS1 peptide. As to the kind of experiment: fluorescence polarisation.
The target in assay [2] is Pex5_(eTPR) with a GSGS-spacer between the Pex5 TPR domain and Wxxx(F/Y) motif + PTS1 peptide (Trypanosoma cruzi) (UniProt Q4DPQ9). As to the kind of experiment: ITC; Pex14NTD (175 μM) injected into Pex5_(eTPR) + PTS1 (20 μM + 50 μM peptide) in the cell; 20 mM sodium phosphate, 100 mM NaCl, pH 6.5; 25 °C.
Assay [3] deals with Pex5_(eTPR) + PTS1 (complex of Pex5_(eTPR) with the PTS1 peptide, prepared before ITC) (Trypanosoma cruzi) (UniProt Q4DPQ9). The assay is described as above.
The target of assay [4] is Pex5_(eTPR)(Y358A) + PTS1 peptide (Trypanosoma cruzi) (UniProt Q4DPQ9). Described as above.
The target in assay [5] is Pex5_(eTPR)(N353E) + PTS1 peptide (Trypanosoma cruzi) (UniProt Q4DPQ9). The assay is described as above.
The target in assay [6] is Pex5eTPR (truncated Pex5, extended TPR domain with one Wxxx(F/Y) motif; residues 314-666), Trypanosoma cruzi (Trypanosoma cruzi) (UniProt Q4DPQ9). Nature of the assay: ITC; Pex14NTD (175 uM, syringe) injected into Pex5eTPR in the cell, in the absence of PTS1 peptide; 20 mM sodium phosphate, 100 mM NaCl, pH 6.5, 25 °C.
Assay [7] concerns the target Pex5eTPR (wild type) mixed beforehand with the PTS1 peptide of MDH (Trypanosoma cruzi) (UniProt Q4DPQ9). Nature of the assay: ITC; Pex14NTD in the syringe injected into Pex5eTPR + PTS1 peptide in the cell; 20 mM sodium phosphate, 100 mM NaCl, pH 6.5, 25 °C; independent model. For orientation: Isothermal titration calorimetry measures the heat released or taken up as one component is titrated into another.

Assay [8] deals with Pex5eTPR(N353E) mixed beforehand with the PTS1 peptide of MDH (Trypanosoma cruzi) (UniProt Q4DPQ9). Described as above.
Assay [9] has as its target Pex5eTPR(Y358A) mixed beforehand with the PTS1 peptide of MDH (Trypanosoma cruzi) (UniProt Q4DPQ9). The description is as above.
Assay [10] concerns the target MDH(Δ62–70) (Trypanosoma cruzi). Nature of the assay: ITC; Pex5_(eTPR) (250 μM) injected into MDH (25 μM) in the cell; 100 mM Hepes, 150 mM NaCl, 2 mM β-mercaptoethanol, pH 7.5; 25 °C.
For assay [11], the target named is MDH(GSGS) linker variant (Trypanosoma cruzi). The assay is described as above.
The target in assay [12] is MDH(GSGS), glycosomal malate dehydrogenase with a GSGS linker between MDH and its PTS1 (Trypanosoma cruzi). Nature of the assay: ITC; Pex5eTPR in the syringe injected into MDH in the cell; 100 mM Hepes, 150 mM NaCl, 2 mM beta-mercaptoethanol, pH 7.5, 25 °C; independent model; single titrations (replicates), each fitted by itself.
Assay [13] deals with glycosomal malate dehydrogenase (MDH), wild type (Trypanosoma cruzi). The description is as above.
Assay [14] concerns the target glycosomal malate dehydrogenase (MDH, residues 1–323) (Trypanosoma cruzi) (UniProt Q4DRD8). As to the kind of experiment: ITC; Pex5_(eTPR) (250 μM) injected into MDH (25 μM) in the cell; 100 mM Hepes, 150 mM NaCl, 2 mM β-mercaptoethanol, pH 7.5; 25 °C.
Assay [15] has as its target PTS1 peptide derived from MDH (NH2-ARSKL-COOH) (Trypanosoma cruzi). As to the kind of experiment: ITC; Pex5_(eTPR) with the PTS1 peptide (NH2-ARSKL-COOH); who was in the cell is not stated for the peptide; 25 °C.
The target of assay [16] is Pex5eTPR(GSGS) (Trypanosoma cruzi) (UniProt Q4DPQ9). As to the kind of experiment: ITC; Pex14NTD (175 uM, syringe) injected into Pex5eTPR in the cell, in the absence of PTS1 peptide; 20 mM sodium phosphate, 100 mM NaCl, pH 6.5, 25 °C.
For assay [17], the target named is Pex5eTPR(Y358A) (Trypanosoma cruzi) (UniProt Q4DPQ9). The description is as above.
Assay [18] has as its target Pex5eTPR(N353E) (Trypanosoma cruzi) (UniProt Q4DPQ9). The description is as above.
Assay [19] deals with T1, glycosomal malate dehydrogenase (MDH, residues 1–323) (Trypanosoma cruzi), Q4DRD8.
T1 chain: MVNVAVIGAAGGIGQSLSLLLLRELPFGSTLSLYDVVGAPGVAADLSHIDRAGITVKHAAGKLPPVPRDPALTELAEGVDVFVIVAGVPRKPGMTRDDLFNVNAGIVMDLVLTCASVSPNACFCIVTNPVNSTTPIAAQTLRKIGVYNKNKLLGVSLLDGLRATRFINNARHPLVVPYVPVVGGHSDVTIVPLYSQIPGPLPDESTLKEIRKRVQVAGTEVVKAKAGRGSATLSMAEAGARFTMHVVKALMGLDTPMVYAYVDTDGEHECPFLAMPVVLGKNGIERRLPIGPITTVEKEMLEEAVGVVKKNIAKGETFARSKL
Nature of the assay: ITC; Pex5_(eTPR) (250 μM) injected into MDH (25 μM) in the cell; 100 mM Hepes, 150 mM NaCl, 2 mM β-mercaptoethanol, pH 7.5; 25 °C.

Assay [20] has as its target T2, PTS1 peptide derived from MDH (NH2-ARSKL-COOH) (Trypanosoma cruzi).
T2 chain: ARSKL
As to the kind of experiment: ITC; Pex5_(eTPR) with the PTS1 peptide (NH2-ARSKL-COOH); who was in the cell is not stated for the peptide; 25 °C.

The target of assay [21] is 6-FAM labeled PTS1 peptide. As to the kind of experiment: fluorescence polarisation. The source holds these as a separate data set.
The target in assay [22] is T3, glycosomal malate dehydrogenase (MDH, residues 1–323) (Trypanosoma cruzi, UniProt Q4DRD8 1-323).
T3 construct: glycosomal malate dehydrogenase (MDH), Trypanosoma cruzi, residues 1-323, UniProt Q4DRD8; Tetramer (two dimers related by D2 symmetry) by cryo-EM; also called cargo; MDH tetramer; source: E. coli BL21 (DE3), purified (Ni-NTA, SEC)
T3 sequence (looked up): T1 chain
As to the kind of experiment: ITC; Pex5_(eTPR) (250 μM) injected into MDH (25 μM) in the cell; 100 mM Hepes, 150 mM NaCl, 2 mM β-mercaptoethanol, pH 7.5; 25 °C. The conditions noted are these: both partners purified.

Take “Pex5_(eTPR) in presence of excess Pex14NTD (from UniProt Q4DPQ9 316-668) (complex)”: in assay [1], the Kd amounted to 80 nM.

On to “N-terminal domain of Pex14 (Pex14NTD; residues 21–85) (domain or fragment)”, for which the dissociation constant (Kd) is 178 nM in assay [2], 53 nM in [3], 81 nM in [4] and 45 nM in assay [5]. In addition, the dH in assay [2] was -12.6 kcal/mol; in assay [3] it was -15.4 kcal/mol; in assay [4], -13.7 kcal/mol; in [5], -13.8 kcal/mol. For the same molecule, the stoichiometry N came out at 0.7 in [2], 0.671 in [3], 0.88 in assay [4] and 0.659 in [5].

Regarding Pex14NTD(A48F) (domain or fragment), in assay [6], the Kd was 59 nM and the stoichiometry N stood at 0.68. In [3], the Kd stood at 121 nM, the dH is -18.3 kcal/mol and the stoichiometry N was 0.608. In assay [7], the Ka amounted to 8.24e+06 M⁻¹.

For “N-terminal domain of Pex14 (Pex14NTD), wild type (domain or fragment)”, the Ka amounted to 1.9e+07 M⁻¹ in assay [7], 2.24e+07 M⁻¹ in [8] and 1.24e+07 M⁻¹ in assay [9].

In assay [10], “Pex5_(eTPR) (residues 314–666), truncated Pex5 containing an extended TPR domain with a single Wxxx(F/Y) motif (from UniProt Q4DPQ9 316-668) (domain or fragment)” yielded a Kd of 1000 nM, a dH of -6.07 kcal/mol and a stoichiometry N of 0.5. In assay [11], this molecule returned a Kd of 148 nM, a dH of -5.74 kcal/mol and a stoichiometry N of 0.543.

With “Pex5eTPR, truncated Pex5 with the extended TPR domain and a single Wxxx(F/Y) motif, wild type (from UniProt Q4DPQ9 314-666) (domain or fragment)”, in assay [12], the Ka was 5.79e+06 M⁻¹ and 8.29e+06 M⁻¹; the equilibrium dissociation constant (Kd) is 173 nM and 121 nM; the stoichiometry N is 0.722 and 0.503. In addition, in assay [13], the Ka was 2.03e+06 M⁻¹ and 2.77e+06 M⁻¹ and 2.21e+06 M⁻¹; the Kd was 492 nM and 361 nM and 453 nM; the stoichiometry N is 0.309 and 0.622 and 0.265.

In [6], Pex14NTD(Q52A) (domain or fragment) yielded a Kd of 17 nM and a stoichiometry N of 0.647. Further, in assay [3], the Kd worked out at 54 nM, the dH was -15.7 kcal/mol and the stoichiometry N was found to be 0.664. In assay [7], the Ka stood at 1.86e+07 M⁻¹.

In assay [14], “Pex5_(eTPR)(Δ470–480) (from UniProt Q4DPQ9 316-668) (domain or fragment)” showed a Kd of 102 nM, a dH of -6.88 kcal/mol and a stoichiometry N of 0.452. Also, in assay [15], the dissociation constant (Kd) is 420 nM, the dH was -6.31 kcal/mol and the stoichiometry N was found to be 1.04.

As to “N-terminal domain of Pex14 (Pex14NTD; residues 21-85), Trypanosoma cruzi (domain or fragment)”, the stoichiometry N was 0.657 in [6], 0.568 in assay [16], 0.762 in assay [17] and 0.738 in assay [18]. For the same molecule, the dissociation constant (Kd) in assay [16] stood at 122 nM; in [17] it was 119 nM; in assay [18], 48 nM.

B1: Pex5_(eTPR) (residues 314–666), truncated Pex5 containing an extended TPR domain with a single Wxxx(F/Y) motif, Q4DPQ9 316-668 (domain or fragment)
chain: MDDGALDNAADVEEWVREYAEAQEQLQRVQNETNYPFEPNNPYMYHDKPMEEGIAMLQLANMAEAALAFEAVCQKEPENVEAWRRLGTTQAENEKDCLAIIALNHARMLDPKDIAVHAALAVSHTNEHNVGAALQSLRSWLLSQPQYEHLGLVDLREVAADEGLDEVPEENYFFAAPSEYRDCCTLLYAAVEMNPNDPQLHASLGVLHNLSHRFDEAAKNFRRAVELRPDDAHMWNKLGATLANGNRPQEALEAYNRALDINPGYVRVMYNMAVSYSNMAQYPLAAKHITRAIALQAGGTNPQGEGSRIATRGLWDLLRMTLNLMDRSDLVEASWQQDLTPFLREFGLEEMAV
modifications: not checked
For the molecule B1, the figures for the dH in [19] and in [20] were -6.33 kcal/mol and -5.02 kcal/mol, respectively. In addition, the stoichiometry N in [19] is 0.398; in assay [20], 0.933. The molecule also yielded a Kd in [21] of 254 nM.

B2: Pex5_(eTPR)(R625A, D629A) (domain or fragment)
chain: B1 chain with V16A, R156Q, M234T, R312A, D316A, R344K, E350D
notes: source: E. coli BL21 (DE3), purified as wild type (Ni-NTA, SEC)
Take B2: in assay [22], the dH is -5.38 ± 0.12 kcal/mol and the “stoichiometry N” value is 0.5 ± 0.006.

B3: Pex5_(eTPR)(P490R) (domain or fragment)
chain: B1 chain with V16A, R156Q, P177R, M234T, R344K, E350D
notes: as for B2
Take B3: in assay [22], the dH was -6.43 ± 0.215 kcal/mol and the “stoichiometry N” value is 0.292 ± 0.006.

One may read the Kd as the equilibrium constant for the complex coming apart. As usually defined, the stoichiometry N is the number of molecules, sites or subunits per partner or assembly.
